The values below come from paper PMC7210009.

Where two headings read alike, the source gives them in different places.

For “PFKL (phosphofructokinase, liver isoform): K272R”, the degradation_or_half_life result (ubiquitination at K272) is given as “decreases”.

“PFKP (phosphofructokinase, platelet isoform): AKT inhibitor X (10 μM, 15 hrs)”: the expression_or_secretion result (phosphorylation at S386) is reported as “no change”.

On to “PFKP (phosphofructokinase, platelet isoform): K281R”, for which the degradation_or_half_life result (ubiquitination at K281) is “decreases”.

With “PFKP (phosphofructokinase, platelet isoform): S386A”, the degradation_or_half_life result (phosphorylation at S386) was “no change”.
